Here are results for four substances from US20120226024A1.

Assay [1] concerns the target Fucα1,6GlcNAc-CD52 (17) (human) (UniProt P31358).
For assay [2] the target is unchanged. This is another data set of the same source.

Like-named read-outs stand apart in the source and are kept apart here.

On to “Endo-F2 (Endoglycosidase-F2), wild type (enzyme)”, for which the transglycosylation with sialoglycan oxazoline (12), yield of 18 in assay [1] was 25%. Consider “Endo-F3 (Endoglycosidase-F3), wild type (enzyme)”, for which the transglycosylation with sialoglycan oxazoline (12), isolated yield of 18 in assay [1] is 55%. In the case of Endo-F3 D126A mutant (enzyme), in assay [2], the transglycosylation with sialoglycan oxazoline (12), yield of 18 is > 90%.

With Endo-F3 D126Q mutant (enzyme), the transglycosylation with sialoglycan oxazoline (12), yield of 18 in assay [2] is > 90%.
